From PMC8568338 (Cell reports, 2021)
Read-outs that look alike come from different tables or passages of the source.

What was measured:
[1] = target: T1, VP40-WT (Δ43, HIS-tagged), purified RNA-free monomer/dimer (UniProt Q05128 44-326); assay: 30 mM NaCl
[2] = target: T1, VP40-WT (Δ43, HIS-tagged), purified …
[3] = target: T1, VP40-WT (Δ43, HIS-tagged), purified …; assay: blue native gel
[4] = target: T1, VP40-WT (Δ43, HIS-tagged), purified …; assay: native MS

| Binder | binding result [2] | also measured |
| --- | --- | --- |
| UACAUUCCCAGCCUUUGUAGUGUUUUCGCCAAGCA (ssRNA) [HSP RNA] | – | binding result [1]: binds |
| TACATTCCCAGCCTTTGTAGTGTTTTCGCCAAGCA (ssDNA) [HSP DNA] | binds | – |
| AGGGG (ssDNA) [AGGGG DNA] | binds | – |
| AAAAAAAAAAAAAAAAAAAAAAAAAAAAAAAAAAAA (ssDNA) [A36 DNA] | – | binding result [3]: no binding |
| CAGCCTTTGTAGTGTTTT (ssDNA) [HSP18 DNA] | binds | – |
| TAAAATAATTTTATTGAAT (ssDNA) [S2R DNA] | – | binding result [4]: binds |
